From the domain aggregation screens of Martell et al. (2025)

assay: soluble fraction after stress (log2 fold change); higher = more stays soluble; pooled small domains, quantitative proteomics; conditions: stress: 50 degC
Outline: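 The measure of aggregation propensity here is the base-two logarithm of the fold change in the soluble amount of each protein after stress. A higher value means more of that protein stays in solution. Stress was applied at 50°C to pooled libraries of small protein domains, read out by high-throughput quantitative proteomics.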

Sequence | soluble fraction (log2)
HMLISAESVKRRLEMIRHLILLGDYEDVTAQVIKLNPAANEYKLTPIIEELNGGKYQEALEKINSYLSKF | 0.0802
HMASLSEREHDVAVLILQGKTYAEIGQAIFISPRTVEHHVASIRRRLEAKSRSDLIAKLRLTIGGTED | -2.18
HMRKPDLTSVRTLIRSVSKLARHLKISPNGIYRWISVNRIPGAHVVKVANYYDVEIRDLVHLTGSD | -1.39
HMKTTSYAKLLRFLRTERDLSQITVAKQLGLSRASYLALEHGSRELSLSEAVKVTTLYGIRIDDLIVNH | -3.48
HMTFEAKKGYINADMSVNVRETASTSATVIITLNPNTEVKVVGEENDFYKIEYKEYKGYVAKRLISDSQVQ | -0.166
HMKVTGSVQKKKGYYYIVVRLPTKNGTQYEQKQKWFNTKLKATPRNKTAAQVILAEKLTEYGGIV | -2.8
HMEDFDLSDTERKIIAQIGHGYSNKEIAQKLGFSEGTIRNYLSVILDKLDLRDRTQLAIWYLSR | -0.143
HMFDLENIRLTLARRLNVAAHLRPKYVAGFTLLLKQNFPEQNAEDLLNRLEHNQWLKVNQREIEYSPRLLM | -1.58
HMDASSTGFLGKHVQIVGLVSQPHLNGRRGVASRFDSNRRRYLVRLDEIDGHAEVVAFRPDNLVLSNLL | -0.573
HMQLGSILAYKFPQFGGIDGAWQVRDDSNGTGPYIAFWDAKTIGRGMPTEDELTAWAQEYEA | -0.153
HMVESLTDRELQILSLAAKGYTNKAIAVQLGISDRTVQNHLANTFQKLNAESRTEAVMRAVSLGLISA | -0.213
HMISDDLYQAVLDFTLTQDTISISRLQQNFNLGWPRARQLYDQLMQNGIIEPPDEANSAKGAVVIANKRG | 0.46
HMTVKRNILQELLKTAFKHPEDFRPSKTFYGETGIGQKRFWALYYGHKAVTQKEYYAVADYLG | -0.0349
HMGYGEQEAEATKYMSLHAIMSADETLSKMYTPENQHKLMTHVMEQNGIKNVKDYLTPPSELP | -0.102
HMDKEVMEAVLRILYDDDFNPDQRDAILYFFVQELDQRTISEITGAKIGTVKKRIHDGLKKLRQKLAKEDL | -1.36
HMDFQTDVFISRFAELKKESGETNKDLQDVFELSLSALINYQTGKRIPDIAFLHKLAQHFGVSADYLLGLS | -0.549
HMEPTPREIVVQQLGYRGLEVLGNAEYQFPKETQIIILKLAELISSGSVTETLEGGKLLALFRGVGINVR | -1.59
HMDIDLNTIKKITLDDIHAFLSYLTTTYHSKAATRARKASSIRVFFNYLSAKANLIEVNPAQNLETPKLD | 0.0581
HMQKMPEMQILPNGKVKLPDFSGINMRKAAELLQYGKLRLQPYGSGTAYQQKPAAGTEVDEGTVVEIWF | -0.218
HMEAALTLRVDKAGSLRSLLSDEQYAKTSKIIVSGEINTLDIKTLQEMSGEKGSLQSIDLSQANIVAY | -0.00676
HMREELIALYRAIARLSEDEQELLNLFYFARRPLSEIAQLTGMTPGAAKTRLYRARRHLRREMEEDGYG | -0.986
HMFDSYDIYDEAGNTVNTVKGKLSWGHLLEIYDRFDNHIGTVQERVLTFLPKFLMYINGQEIGEIR | -0.0596
HMRRHLLEMNDAIGRLGRLISEDPADRDVAEVIWAALRGMVMGQMIMNEPIDWQRERRTLVEMAIGR | 0.0146

Sequence | soluble fraction (log2)
HMKAKPTLLTPYEERLKGWLETDSRRPKRDRRTGLALFAKLQQEGFTGSYTRVTEYIRRWRDSGG | -3.01
HMSSKYLKIYNDIVGKIDSGIFEANTKLPSESQLMDEYNVSRYTVRKSLNLLEQNGYIEKSKGKGSFVLDM | -0.717
HMRSNADALIGRTARVSQTIVENGFGRVALDGDDWKAQAADGSRIEEGQNVIVKDRDSIILTVEKE | 0.074
HMNVPYEMVTQNGEVFYKYKVQPGEGVFAVSRTFSVSVAEILRVNPEANKGLKNGQVLLIPVPKDMIA | 0.0163
HMQPEKELAPLIGQRVSVRLHDGDGGYRDLLGELESPDSIRKKNGEIAFFDPAKIAALRVVV | 0.0899
HMPASVSAIRKYLGGGSFKGVGPALAKRIVDAFGEYTIETIENDPKQLAKVKGVSEKMALEINTQ | -0.0317
HMGVIDTLSGPQKAAAILVAIGRPSASRLLKHFNAEDLRKLAGHARTLEPISPLDFEHLVKQFEDSFAEG | -0.798
HMTGSTSVAQVSTPSGSLNLRAYASTSARVLLQIPEYAFVTVYNRGATWSYVSYNGVSGYVMSVYLSFGG | -1.01
HMTVKKLIINEDNSGRRIDNYLLSIFNSVPRSKIYNIIRKGEVRVNSSRIKPSYRLEEGDQVRIPPNLDYT | -1.04
HMGQQTVEPLSRRELEVLSLLAKGLSNQQIADRLVISVRTVKKHVENIHGKLGVQSRTQAVARARELGLV | 0.122
HMAFKEQLKAARLAKGYTQEQLATAIGVAKSTFTGYEKGNSEPNMLTIKKLMEILEVDANYLWY | -2.49
HMTENQKNIDLIKIVSLLVHAAKIDENYTNKEKELIINFINNFSKENKQNIKSSEILEEAEKYEK | 0.0572
HMIVIMAKESSPAELEGVKNRIESHPGLRPQVFDGVERIVVGVLGSIPPDLKDEIELLPGVIEVVPISK | -0.0582
HMSIYQYFNISEINSIDDLKKQYFKLAKKYHPDAGGDKVSFQELQNEYEQLTKKILSGAELNADELKTE | -0.109
HMDMAENEEYKVIMGQAQQLAEQFFPADDNTRRIMLGQLKLENYSLYLLTKQILDEATKGQAAAAN | 0.0229
HMNVNTNTILKSLMETYPDSTVFKKAEIVSIANSLGFKKSDYSPLTSTDNRTDVRGQYDLSAVIIPMRESN | -0.13
HMNLRLKEVLDEKNMSLVTLSEKTGIEKGNLSAISNNKKNPTVETLSKIAKALQISLAELFESPP | 0.303
HMPSRPIQVASFSKEDNAKRAAEALAKIGVTATPQKSEKAGKAVWGVVVTGDDAMLQKIKDAGFADAYFL | 0.0921
HMSKHLWNKVLPKVTTANITNLINQAIRKGEWRMDNKGVVHIIWRYRGKIIEVTGYLKDKVFNVGNAWVR | -0.122
HMEHTPYLTEREADVVRLLVSGLDTAQIAQRLGIKTATVTAHKKHIFLKIGVRNTTQLVAWALIR | -2.34
HMPISQGATVKHNANMRKGASTKYKVTGVLQEGEEVKILSQSNGWYKIQNSDNEKGWTYNTHINASDK | 0.0951
HMINLTKVGNFISIIKLQQIWTIDELLKKVDINYDELLYLLTILSDIYSKNGEYFFDFDIDAENNKILFNN | 0.42
HMWQVVEVDYGTFMSMTEDGQVGRVEIQEQENLILFTDQEETTVYKTAMVDDPDLTARLHDAGIPFYGQE | -0.64

Sequence | soluble fraction (log2)
HMKTEIGQAMRKLRKAKKMTQDTLAEKLGVAPANISRYEKGQQGIEVDKLPTLADALGVSVPEFFAIASG | 0.0437
HMTSSQRDSILEFLKTRKDHPTADVVYMNVRKSFPNISLGTVYRNLTLLSDIGQIAKIRVGDGVDHFDADT | -0.526
HMITPKQTAETLGIATSTLRRWASEFEPFLSLRTGVKRTYTTDDITTLKRVKDLFAQGLKTEQVREAL | -0.161
HMNLVRQHTDYAFRLLVALSQAPGKPISTRTLASAADVPYQFASKIMQKLHEEGLVESVMGPFGGFRLVQ | -2.52
HMNDLVTWDRYKIELGDTLSEIAQKLVTRVDILKTVNQIQGTRIIAGNSLMVPRTTDTNVLTYL | -0.174
HMNELGSLIKRKREELGLSQEELARILGYKHKSSINKIELGLADVPRTKVPAFAKALGMTPVEFS | 0.0771
HMAVKTEHGRIWKALPEGQDGYREDVPMFTSKSMYDGSAGIGIFLIRLYEATSDERWLKEAEEAAAHII | 0.351
HMELTDRQKQIIEIVKKQQPISGEKIASILGFARATLRPDFSLLTMSGILQAKPKVGYLINEE | -0.152
HMYGTQTVNRGAVQPGMLVKHKDSTWTASANARGRLYLHRGVEMTYTRDLLVEVYLNGLGNGL | 0.102
HMYKNAFITYDNNLYYLGSDSKMAIGWQSIGGNTYYFRNWGGMITGKQVIDGKTYVFDEDGKLVQSPD | -1.12
HMNLNLDITTYKLEELENLLKLKPNYKQEQIFEAKTKMEKFILKSNLNESKREELYIFLDNIYNKLTNNLL | -2.17
HMESYNIVEQVLTKKILSKGNTLAKLSNEFDGLVMLVIRGDEFIIPNGETLLFEKDILVINNGP | -1.72
HMKADTSPEAQKKIIAAFEPYSVNKDQIEKLIQRRIDSITPAQVIRLRKILASLKDGMSSPEDWFE | 0.0361
HMQEGPGLVPDFRGQTMREVLRGGQSLGVRVAVDGTGLAVAQTPEPGSPLNKVSQVTVSFRPP | 0.0873
HMEEEEITIHIIGEVKYPGIVILKTGQRIIDAIDAAGGETEEADLNKINLAQLLSDGDKIYVPSINDN | -0.0785
HMNQIATSTQAIITTLSFLNTSSIFKLPVGDTASRPTGVSPGTLRFNSQEDSAEIYKADDGTGSAGWTEVA | 0.0743
HMVIQRQIPPLVTRMLDGLEQFIQLDMPFDLDTRLGNIEAVRANMDRSDVTSAEAYRQVLELYSIELQ | -0.2
HMIDFIGLEAKLLSTISGEKMGNAEVIVDGNVMNIYVKSLDTSEIKFRENVLIIKQSDDKNYYLVAKP | -0.453
HMNMFGIQRRNHLLSLLQEKKSITVQEAAVIFEVAEETIRRDFRTMEGQGLIVRTHGGALLADD | -2.19
HMTKSEWLRESREHLGLSQTDLRNLLNTALNRSYDKSRISRWENSKENIPAEVVKQIESLIATR | 0.123
HMVNIPEIAKKFGKSTSEVFEQIQIGEKHEMEHTNDPKKARKIALDHLSDDMDYYKKLKKLG | 0.27
HMENVRKTEWVTISNDKSQTRTTVYFESGNQKLDKHPQIQGFEYQRTYVEGGVKYYLFVEKGTKLDE | -0.166
HMKVSVDLSMFEDDQTADRNAAVAWVVDELGAGGVDRTILMQLQSTGWSAEQSRAILDLASAGR | -0.208
